Where two headings read alike, the source gives them in different places.

From PMC6081406 (Nature Communications, 2018) come the findings set out here.

Test [1] deals with GABAAR α1 subunit large cytoplasmic loop (AA 334-420) (UniProt P62813).
For test [2], the target named is GABAAR α2 subunit large cytoplasmic loop (AA 335-419) (UniProt P23576).
Test [3] addresses GABAAR α3 subunit large cytoplasmic loop (AA 392-406) (UniProt P20236).
Test [4] has as its target GABAAR α1 subunit large cytoplasmic loop (AA 334-420) (UniProt P62813). Nature of the test: ITC; CB-SH3 titrated against the receptor loops and truncated constructs. Background: In ITC the heat of successive injections is recorded.
The target of test [5] is GABAAR α3 subunit large cytoplasmic loop (AA 392-406) (UniProt P20236). Described as above.
Test [6] deals with large cytoplasmic loop of the GlyR β subunit (AA 378-425). The description is as above.
Test [7] has as its target T1, GABAAR α2 subunit large cytoplasmic loop (AA 335-419) (UniProt P23576 335-419).
T1 construct: GABAA receptor α2 subunit, large cytoplasmic loop, AA 335-419; also called α2L; GABAAR-α2L
The test is described as above. The note with it: both partners purified.

For test [8], the target named is GABAAR-α2 large cytoplasmic loop (AA 335-419). Nature of the test: ITC; CB-SH3 titrated against the GABAAR α-subunit loops and truncated α2 constructs; purified proteins.
The target in test [9] is GABAAR-α2 loop truncation α2-351St (AA 307-350). Described as above.
In test [10] the target is GABAAR-α2 loop fragment α2-min3. The test is described as above.
In test [11] the target is GABAAR-α2 loop truncation α2-335St (AA 307-334). The test is described as above.
Test [12] has as its target T2, SH3 domain of collybistin (CB-SH3) (mouse (murine), UniProt Q3UTH8 4-72).
T2 construct: collybistin (CB1, ARHGEF9), murine, residues 4-72, encompassing the complete SH3 domain (residues 8-67); said to be identical to the SH3 domain of the human CB isoform hPEM-2; pGEX vector construct provided by T. Soykan (Brose lab); also called collybistin SH3; source: E. coli, purified (GST tag, in-situ thrombin cleavage, Superdex 200 SEC); not shown: GST, N-terminal, cleaved
T2 sequence (looked up): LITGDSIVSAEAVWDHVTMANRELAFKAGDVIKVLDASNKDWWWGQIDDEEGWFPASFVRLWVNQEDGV
Described as above. The conditions noted are these: both partners purified.

The target of test [13] is T3, GABAA receptor alpha2 large intracellular loop (Mus musculus, UniProt P26048).
T3 chain: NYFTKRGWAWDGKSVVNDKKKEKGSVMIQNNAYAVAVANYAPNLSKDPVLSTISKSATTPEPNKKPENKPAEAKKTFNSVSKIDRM
Nature of the test: ITC.

Turning to “E domain of gephyrin (GephE, AA 318-736) (domain or fragment)”, the Kd (usually the equilibrium constant for the complex coming apart) in [1] is 17 µM; in test [2], > 500 µM; in test [3] it was 5 µM.

B1: SH3 domain of collybistin (CB-SH3) (domain or fragment, murine, UniProt Q3UTH8 4-72, looked up)
chain: T2 sequence (looked up)
notes: collybistin CB1, murine, residues 4-72, encompassing the complete SH3 domain (residues 8-67); pGEX construct provided by T. Soykan (Brose lab); source: E. coli, purified (GST tag, in-situ thrombin cleavage, Superdex 200 SEC); not shown: GST, N-terminal, cleaved
Turning to B1, the Kd is 500 µM in [4]; > 500 µM in [5]; > 500 µM in test [6]; 1.3 µM in test [7]; 7 µM in [9]. For the same molecule, in test [8], the stoichiometry N – broadly, the number of molecules, sites or subunits per partner or assembly – worked out at 0.62.

B2: SH3 domain of collybistin (CB-SH3), Q3UTH8 4-72 (domain or fragment)
chain: T2 sequence (looked up)
With B2, the Kd in [10] and in test [11] was > 500 µM in each case.

B3: GABAAR-α2 loop fragment α2-min2 (peptide)
chain: KGSVMIQNNAYAVAVANYAPNL
notes: GABA-A receptor subunit alpha-2, stretch of the large cytoplasmic loop
Consider B3, for which the Kd in [12] is > 500 µM.

B4: GABAAR-α2 loop fragment α2-min1 (peptide)
chain: QNNAYAVAVANYAPN
notes: as for B3
With B4, the Kd in test [12] was > 500 µM.

B5: Collybistin SH3 (protein)
chain: ITGDSIVSAEAVWDHVTMANRGVAFKAGDVIKVLDASNKDWWWGQIDDEEGWFPASFVRLWVNQED
In turn, B5 came in with a Kd in [13] of 1 µM.
